Reference: US20040091953

Tests used:
[1] = molecular target: fusion protein between subunit 9 of F0/F1-ATPase and DHFR
hSIRT3R99/100G-FLAG = molecular target: T1, hSIRT3R99/100G-FLAG
T1 chain: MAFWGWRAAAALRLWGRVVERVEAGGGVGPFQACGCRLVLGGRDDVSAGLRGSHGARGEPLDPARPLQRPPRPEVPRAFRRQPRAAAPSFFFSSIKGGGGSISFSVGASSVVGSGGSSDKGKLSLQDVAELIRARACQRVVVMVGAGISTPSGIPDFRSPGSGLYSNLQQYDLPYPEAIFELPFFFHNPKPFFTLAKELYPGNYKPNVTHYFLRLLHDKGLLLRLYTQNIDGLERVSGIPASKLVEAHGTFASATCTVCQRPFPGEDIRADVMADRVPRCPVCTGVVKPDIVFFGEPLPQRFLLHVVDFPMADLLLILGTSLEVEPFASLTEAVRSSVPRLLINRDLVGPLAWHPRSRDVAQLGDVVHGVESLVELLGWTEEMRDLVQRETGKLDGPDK

[2] = molecular target: T2, hSIRT3-FLAG, full-length 44 kDa form
T2 chain: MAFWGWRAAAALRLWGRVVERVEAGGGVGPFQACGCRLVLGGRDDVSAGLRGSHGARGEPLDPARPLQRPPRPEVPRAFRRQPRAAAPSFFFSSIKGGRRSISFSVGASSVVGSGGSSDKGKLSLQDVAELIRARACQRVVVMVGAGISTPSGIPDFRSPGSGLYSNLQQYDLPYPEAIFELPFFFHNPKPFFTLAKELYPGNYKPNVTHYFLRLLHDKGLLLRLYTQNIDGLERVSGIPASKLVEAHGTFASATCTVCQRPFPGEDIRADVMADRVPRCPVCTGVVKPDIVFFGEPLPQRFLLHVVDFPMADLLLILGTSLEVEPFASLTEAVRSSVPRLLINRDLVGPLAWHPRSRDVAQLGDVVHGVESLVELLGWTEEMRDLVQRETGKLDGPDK

[3] = molecular target: other hSIRT3 mutants targeting arginine residues at positions 133, 135, 139 and 158

B1: purified recombinant yeast MPP (protein)
chain 1: ARTDNFKLSSLANGLKVATSNTPGHFSALGLYIDAGSRFEGRNLKGCTHILDRLAFKSTEHVEGRAMAETLELLGGNYQCTSSRENLMYQASVFNQDVGKMLQLMSETVRFPKITEQELQEQKLSAEYEIDEVWMKPELVLPELLHTAAYSGETLGSPLICPRELIPSISKYYLLDYRNKFYTPENTVAAFVGVPHEKALELTEKYLGDWQSTHPPITKKVAQYTGGESCIPPAPVFGNLPELFHIQIGFEGLPIDHPDIYALATLQTLLGGGGSFSAGGPGKGMYSRLYTHVLNQYYFVENCVAFNHSYSDSGIFGISLSCIPQAAPQAVEVIAQQMYNTFANKDLRLTEDEVSRAKNQLKSSLLMNLESKLVELEDMGRQVLMHGRKIPVNEMISKIEDLKPDDISRVAEMIFTGNVNNAGNGKGRATVVMQGDRGSFGDVENVLKAYGLGNSSSSKNDSPKKKGWF
chain 2: SQIPGTRTSKLPNGLTIATEYIPNTSSATVGIFVDAGSRAENVKNNGTAHFLEHLAFKGTQNRSQQGIELEIENIGSHLNAYTSRENTVYYAKSLQEDIPKAVDILSDILTKSVLDNSAIERERDVIIRESEEVDKMYDEVVFDHLHEITYKDQPLGRTILGPIKNIKSITRTDLKDYITKNYKGDRMVLAGAGAVDHEKLVQYAQKYFGHVPKSESPVPLGSPRGPLPVFCRGERFIKENTLPTTHIAIALEGVSWSAPDYFVALATQAIVGNWDRAIGTGTNSPSPLAVAASQNGSLANSYMSFSTSYADSGLWGMYIVTDSNEHNVQLIVNEILKEWKRIKSGKISDAEVNRAKAQLKAALLLSLDGSTAIVEDIGRQVVTTGKRLSPEEVFEQVDKITKDDIIMWANYRLQNKPVSMVALGNTSTVPNVSYIEEKLNQ
[1]
  cleavage by MPP in vitro: resulted in the appearance of digestion products similar to what has been previously reported
hSIRT3R99/100G-FLAG
  cleavage by MPP in vitro: showed abrogation of cleavage by MPP in vitro
[2]
  cleavage by MPP in vitro: led to its cleavage to a product of ˜28 KDa
[3]
  cleavage by MPP in vitro: other mutants were unaffected
